Test: yeast display, Sf9 membrane polyspecificity reagent, FACS + sequencing; frameworks hold sequencing errors
Outline: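 A nanobody's polyreactivity label depends on the gate it was sorted from. Yeast display cells were stained with 10% biotinylated, detergent-solubilized Sf9 membrane reagent for 1 hour at 4 °C, enriched on streptavidin microbeads and sorted by FACS. The low and high (top ~1%) gates were set on anti-HA fluorescence for expression and streptavidin fluorescence for reagent binding.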

Row | Sequence | polyreactivity (PSR sort gate)
1 | QVQLVESGGGLVQAGGSLRLSCAASGFTFSYYAMGWYREAPGKERELVAAISQSGGSKYYADSVKGRFIISRDNAKNTVYLQMNSLKPEDTAVYYCNRGLRSHQSDDYWGLGTQVTVSS | high polyreactivity
2 | QVQLVESGGGLVQAGGSLRLSCAASGFTFSYYAMGWYRKAPGKEMELVAAINWNGGSTYYADSVKGRFTISRDNAKNTVYLQMNSLKPEDTAVYYCNARQSYRYTQHGYWGQGTQVTVSS | high polyreactivity
3 | QVQLVESGGGLVQAGGSLRLSCAASGFTFSYYAMGWYRQAPAKEREVVAAISRSGGSTYYADSVKGRFTISRDNAKNTVYFQMNSLIPEDTAVYYCATDLYYRHGYCGQGTQVTVSS | high polyreactivity
4 | QVQLVESGGGLVQAGGSLRLSCAASGFTFSYYAMGWYRQAPGKERELVAAISWSGGRTYYADSVKGRFTISRDNAKNTVYLQMNSLKPEDTAVYYCAVVYYGSIFVLEYDYWGQGTQVTVSS | high polyreactivity
5 | QVQLVESGGGLVQAGGSLRLSCAASGFTFSYYAMGWYRQAPGKERELVAAITSTGGSTYYADSVKGRFTISRDNAKNTVYLQMNSLKPEDTAVYYCATRGANRTGYKDDYWGQGTQVTVSS | high polyreactivity
6 | QVQLVESGGGLVQAGGSLRLSCAASGFTFSYYAMGWYRQATGKETELVAGIDYSGGSTYYADSVKGRFTISRDNAKNTVYLQMNCLKPEDTAVYYCNAVYARIYYYSHGYDYWGQGTQVTVSS | high polyreactivity
7 | QVQLVESGGGLVQAGGSLRLSCAASGFTFSYYGMVWYRQAPWKERELVAGISRGGSTYYADSVKGRFTISRDNAKNTVYLQMNSLKPEDTAVYYCAAAERLRHGLKFDYWGQGTQVTVSS | high polyreactivity
8 | QVQLVESGGGLVQAGGSLRLSCAASGFTFSYYPMGWYRLAPGKERELVAAITSGGSTYYADSVKGRFTISRDNAKNTVYLQMNSLKPEDTAVYYCNARGYGTLNVRRERMDYWGQGTQVTVSS | high polyreactivity
9 | QVQLVESGGGLVQAGGSLRLSCAASGFTFTAYAMGLYRQAPGKERQLVAAINWSGSRTYYADSVKGRFTISRDNAKNTVYLQMNSLKPEDSAVYYCNTPTSKSSYRHYDYWGQGTQVTVSS | high polyreactivity
10 | QVQLVESGGGLVQAGGSLRLSCAASGFTFTAYAMGWYRQAPGKERELVAAISSGGSTYYADSVKGRFTISRDNAKNTVYLQMNSLKPEDTAVYYCAAVGVYTVKREYWGQGTQLTVSS | low polyreactivity
11 | QVQLVESGGGLVQAGGSLRLSCAASGFTFTAYAMGWYRQAPGKERELVAAISSGGSTYYADSVKGRFTISRDNAKNTVYLQMNSLKPEDTAVYYCSAVGVYTVKRDYWGQGTQVTVSS | low polyreactivity
12 | QVQLVESGGGLVQAGGSLRLSCAASGFTFTDNAMGWSRQAPGKERELVAAISRGVGTNYADSVKGRFTISRDNAKNTVYLQMNSLKPEDTAVYYCAAGGRSVRYNYWGQGTQVTVSS | high polyreactivity
13 | QVQLVESGGGLVQAGGSLRLSCAASGFTFTEYTMGRYRQAPGKERELVATISWSGGSTYYADSVKGRFTISRDNAKNTVYLQMNSLKPEDTAVYYCAKDQWPWVRDSLYTLRYDYWGQGTQVTVSS | low polyreactivity
14 | QVQLVESGGGLVQAGGSLRLSCAASGFTFTGNVMGWYRQAPGKERELVAAISSRGVSTYYADSVKGRFTISRDNAKNTVYLQMNSLKPEDTAVYYCAVSRIVDFGQKMYYWGQGTQVTVSS | high polyreactivity
15 | QVQLVESGGGLVQAGGSLRLSCAASGFTFTGYAIGWYRQAPGKERELVAAITSNTGGTYYADSVKGRFTISRDNAKNTVYLEMNSLKAEDTAVYYCAAGHSGGQVDTIFQGMDYWGQGTQVTVSS | low polyreactivity
16 | QVQLVESGGGLVQAGGSLRLSCAASGFTFTKYAMGWYRQAPGKERELVAAISGRGGSTYYADSVKGRFTISRDNAKNTVYLQMNRLKPEDTAVYYCAKYLYTVAGYNYWGQGTQVTVSS | high polyreactivity

Row | Sequence | polyreactivity (PSR sort gate)
17 | QVQLVESGGGLVQAGGSLRLSCAASGFTFTPYGMGWYRQAPGKERALVAAITWNGGRTYYADSVKGRFTISRDNAKNTVYLQMNSLKPEDTAVDYCAAVAWSWQKRGYWGQGTQVTVSS | high polyreactivity
18 | QVQLVESGGGLVQAGGSLRLSCAASGFTFTRNAMGLYRQAPGKERELFAAISKRGGTTYYADSVKGRFSISRDYAKNTVYLQMNSLKPEDTAVYYCAKDGGITGGYWGQGSQVTVSS | high polyreactivity
19 | QVQLVESGGGLVQAGGSLRLSCAASGFTFTRNAMGWYRQAPGKERELVAAISSSGTSTYYADSVKGRFTISRDNAKNTVYLQMNSLKPEDTAVYYCAKDFYRRYYSWGLGTQVTVSS | high polyreactivity
20 | QVQLVESGGGLVQAGGSLRLSCAASGFTFTRNVMGWYRQAPGKERELVAAINASGGRTYYADSVKGRFTISRDNAKNTVYLQMNSLKPEDTAVYYCAARDTQLGGSRGGSWGQGTQVTVSS | high polyreactivity
21 | QVQLVESGGGLVQAGGSLRLSCAASGFTFTRYAKGWYRQAPGKERELVAAISQNGGSTYYADSVKGRFTISRDNAKNTVYLQMNSLKPEDTAVYYCYAGVRRTIAFDYWGQGTQVTVSS | high polyreactivity
22 | QVQLVESGGGLVQAGGSLRLSCAASGFTFTRYGMGWYRQAPGKERELVAGISSGGSTNYADSVKGRFTISRDNAKNTVYLQRNSLKPEDTAVYYCAARAKRYNVRFDYWGQGTQVTVSS | high polyreactivity
23 | QVQLVESGGGLVQAGGSLRLSCAASGFTFTRYTMGWYRQAPGKERELVAHITSGDSTNYADSVKGRFTISRDNAKNTVYLQMNSLKPEDTAVYYCNAEVKGFFYDYDYWGQGTQVTVSS | low polyreactivity
24 | QVQLVESGGGLVQAGGSLRLSCAASGFTFTSNAMGWYRQAPGKEREFVADISNIGGDTTYADSVKGRFTISRDNAKNTVYLQMNSLKPEDTAVYYCKADFAFIENDYWGQGTQVTVSS | low polyreactivity
25 | QVQLVESGGGLVQAGGSLRLSCAASGFTFTSNAMGWYRQAPGKEREFVADISNIGGDTTYADSVKGRFTISRDNAKNTVYLQMNSLKPEDTAVYYCNADFAFIENDYWGQGTQVTVSS | low polyreactivity
26 | QVQLVESGGGLVQAGGSLRLSCAASGFTFTSNIMGWYRQATGKERELVADISASDGRTYYADSVKGRFTISRDNAMNTVYLQMNSLKPEDTAVYYCNVSSRRLRGLDYWGQGTQVTVSS | low polyreactivity
27 | QVQLVESGGGLVQAGGSLRLSCAASGFTFTSYTMGWYRQAPGKERELVAAISYSGGNTYYADSVKGRFTISRDNAKNTVYLQMNSLKQEDTAVYYCAARYWYDSSNYSYDYWGQGTQVTVSS | low polyreactivity
28 | QVQLVESGGGLVQAGGSLRLSCAASGFTFTSYVMGWSRQAPGKEREFVAAITRSAGGTYYADSVKGRFTISRDNAKNTVYLQMNSLKPEDTAVYYCAAVYRSGSRYYLGWYNYWGQGTQVTVSS | high polyreactivity
29 | QVQLVESGGGLVQAGGSLRLSCAASGFTFTTNAMGWYRQAPGKERELVAAISKRGTRTYYADSVKGRFTISRDNAKNTVYLQMNSLKPEDTAVYYCAAASVAGDKFDYWGQGSQVTVSS | high polyreactivity
30 | QVQLVESGGGLVQAGGSLRLSCAASGFTFTTYAMGWYRQAPGKEREFVAAITKRGGRTYYADSVKGRFTISRDYAKNTVYVQMNSLKPEDTAVYYCNKVVHSFPFPYRYDMDYWGQGTQVTVSS | high polyreactivity
31 | QVQLVESGGGLVQAGGSLRLSCAASGFTFTTYAMGWYRQAPGKERELVARISRRSGSTYYADSVKGRFTISRDNAKYTVYLQMNSLKPEDTAVYYCNADVDRSTTIFDYWGQGTQVTVSS | high polyreactivity
32 | QVQLVESGGGLVQAGGSLRLSCAASGFTFTWYAMGWYRQAPGKERELVASISRSGGSTYYADSVKGRFTISRDNAKNTVYLQMNSLKPEDTAVYYCAAEIWLEYVGYDYWGQGTQVTVSS | high polyreactivity

Source: the nanobody polyreactivity screen of Harvey et al. (2022)
